Where two headings read alike, the source gives them in different places. *1 amine or outer side, *2 acyl side, *3 side chain or, on linkers, in order; H or OH if unused. Where no end group is shown, it is not given here. Side-chain parts run from the residue outwards. [ ]: non-standard residue; d: D form. The star is where a group is joined. γGlu = O=C(O)[C@H](CCC(=O)[*:2])N[*:1]; Palmitoyl = CCCCCCCCCCCCCCCC(=O)*; x70 = not defined here; Aib = CC(C)(N)C(=O)O
What was measured:
[1] = biological target: T1, human GIP receptor (hGIP R) (Homo sapiens, UniProt P48546); experiment: cAMP response of HEK-293 cells stably expressing human GIP receptor (HTRF); type: cell-based
T1 construct: expressed in transfected cells; host or cells: HEK-293
T1 sequence (P48546 22-466): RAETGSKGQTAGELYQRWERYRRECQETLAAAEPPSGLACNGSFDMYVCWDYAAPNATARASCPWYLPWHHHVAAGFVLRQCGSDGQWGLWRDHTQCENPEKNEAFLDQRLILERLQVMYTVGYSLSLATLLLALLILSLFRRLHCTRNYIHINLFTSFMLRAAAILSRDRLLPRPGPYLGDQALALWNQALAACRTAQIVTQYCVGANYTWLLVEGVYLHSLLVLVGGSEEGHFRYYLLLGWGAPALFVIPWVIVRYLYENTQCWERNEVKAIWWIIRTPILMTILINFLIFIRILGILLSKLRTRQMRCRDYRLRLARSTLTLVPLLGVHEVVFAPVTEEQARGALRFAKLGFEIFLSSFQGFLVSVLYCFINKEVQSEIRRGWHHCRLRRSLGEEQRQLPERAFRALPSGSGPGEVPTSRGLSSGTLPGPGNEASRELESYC
Procedure: (§1) cAMP content of cells was determined using a kit from Cisbio Corp. (cat. no. 62AM4PEC) based on HTRF (Homogenous Time Resolved Fluorescence). For preparation, cells were split into T175 culture flasks and grown overnight to near confluency in medium (DMEM/10% FBS). Medium was then removed and cells washed with PBS lacking calcium and magnesium, followed by proteinase treatment with accutase (Sigma-Aldrich cat. no. A6964). Detached cells were washed and resuspended in assay buffer (1×HBSS; 20 mM HEPES, 0.1% BSA, 2 mM IBMX) and cellular density determined. They were then diluted to 400000 cells/ml and 25 μl-aliquots dispensed into the wells of 96-well plates. For measurement, 25 μl of test compound in assay buffer was added to the wells, followed by incubation for 30 minutes at room temperature.

[2] = biological target: T2, human GLP-1 receptor (hGLP-1 R) (Homo sapiens, UniProt P43220); experiment: cAMP response of HEK-293 cells stably expressing human GLP-1 receptor (HTRF); type: cell-based; settings: cAMP formation
T2 construct: expressed in transfected cells; host or cells: HEK-293
T2 sequence (P43220 24-463): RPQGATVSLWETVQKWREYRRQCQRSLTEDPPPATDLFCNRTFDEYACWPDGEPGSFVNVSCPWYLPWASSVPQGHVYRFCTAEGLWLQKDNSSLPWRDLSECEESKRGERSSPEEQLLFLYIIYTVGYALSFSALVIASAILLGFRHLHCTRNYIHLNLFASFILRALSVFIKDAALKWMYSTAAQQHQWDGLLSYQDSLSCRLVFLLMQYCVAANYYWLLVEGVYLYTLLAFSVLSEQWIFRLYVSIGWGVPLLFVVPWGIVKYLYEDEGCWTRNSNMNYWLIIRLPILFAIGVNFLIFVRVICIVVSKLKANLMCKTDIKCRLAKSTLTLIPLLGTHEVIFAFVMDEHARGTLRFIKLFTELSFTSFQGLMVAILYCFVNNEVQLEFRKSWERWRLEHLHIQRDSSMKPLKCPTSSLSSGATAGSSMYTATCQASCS
Procedure: as §1

[3] = biological target: T3, human glucagon receptor (hGLUC R) (Homo sapiens, UniProt P47871); experiment: cAMP response of HEK-293 cells stably expressing human glucagon receptor (HTRF); type: cell-based; settings: EC50 hGLUC R, Table 7; cAMP formation
T3 construct: expressed in transfected cells; host or cells: HEK-293
T3 sequence (P47871 26-477): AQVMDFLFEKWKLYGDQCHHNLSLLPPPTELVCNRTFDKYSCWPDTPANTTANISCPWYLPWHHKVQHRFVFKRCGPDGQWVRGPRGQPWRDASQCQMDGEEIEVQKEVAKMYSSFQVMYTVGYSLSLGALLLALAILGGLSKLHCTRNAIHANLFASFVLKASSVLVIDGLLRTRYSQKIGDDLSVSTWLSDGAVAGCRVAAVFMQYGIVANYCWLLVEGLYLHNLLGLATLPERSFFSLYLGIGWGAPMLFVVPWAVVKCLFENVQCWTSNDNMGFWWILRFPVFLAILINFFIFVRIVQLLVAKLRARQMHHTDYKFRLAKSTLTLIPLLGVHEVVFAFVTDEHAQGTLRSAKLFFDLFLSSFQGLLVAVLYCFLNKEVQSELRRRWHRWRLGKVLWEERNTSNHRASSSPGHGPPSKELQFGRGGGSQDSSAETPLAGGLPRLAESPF
Procedure: as §1

human GIP receptor = biological target: T4, human GIP receptor (human, UniProt P48546 22-466); experiment: cell-based or functional assay
T4 sequence (looked up): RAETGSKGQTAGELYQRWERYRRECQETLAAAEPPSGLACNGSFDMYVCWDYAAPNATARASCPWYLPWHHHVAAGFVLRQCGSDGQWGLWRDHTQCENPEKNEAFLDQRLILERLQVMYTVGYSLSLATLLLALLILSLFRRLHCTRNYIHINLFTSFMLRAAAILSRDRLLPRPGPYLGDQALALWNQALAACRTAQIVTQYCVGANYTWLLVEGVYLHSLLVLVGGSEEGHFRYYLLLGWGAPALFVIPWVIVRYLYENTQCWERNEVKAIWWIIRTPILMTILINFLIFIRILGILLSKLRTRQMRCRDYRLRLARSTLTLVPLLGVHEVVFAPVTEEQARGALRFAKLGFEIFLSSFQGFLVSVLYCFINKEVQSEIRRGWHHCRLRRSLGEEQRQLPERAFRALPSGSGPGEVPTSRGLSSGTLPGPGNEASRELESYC

human GLP-1 receptor = human GLP-1 receptor (human, UniProt P43220 24-463); experiment: cell-based or functional assay
human glucagon receptor = human glucagon receptor (human, UniProt P47871 26-477); experiment: cell-based or functional assay
Sequence of human glucagon receptor (P47871 26-477): as the sequence (P47871 26-477) above

| Molecule | EC50 hGIP R [pM] (formed cAMP) (human GIP receptor) | EC50 hGLP-1 R [pM] (formed cAMP) (human GLP-1 receptor) | EC50 hGLUC R [pM] (formed cAMP) (human glucagon receptor) | other results |
| --- | --- | --- | --- | --- |
| CCCCCCCCCCCCCCCC(=O)N[C@@H](CCC(=O)NCCCC[C@H](NC(=O)[C@H](CCC(N)=O)NC(=O)[C@@H](NC(=O)[C@H](CO)NC(=O)[C@H](CC(C)C)NC(=O)[C@H](CC(=O)O)NC(=O)[C@H](CO)NC(=O)[C@@H](NC(=O)[C@H](Cc1ccccc1)NC(=O)[C@@H](NC(=O)CNC(=O)[C@H](CCC(=O)O)NC(=O)C(C)(C)NC(=O)[C@@H](N)Cc1ccc(O)cc1)[C@@H](C)O)[C@@H](C)O)[C@@H](C)CC)C(=O)N[C@@H](CCC(=O)O)C(=O)N[C@@H](CCCCN)C(=O)N[C@@H](CCC(=O)O)C(=O)N[C@@H](C)C(=O)N[C@H](C(=O)N[C@@H](CCCNC(=N)N)C(=O)N[C@@H](CC(C)C)C(=O)N[C@@H](Cc1ccccc1)C(=O)N[C@H](C(=O)N[C@@H](CCC(=O)O)C(=O)N[C@@H](Cc1c[nH]c2ccccc12)C(=O)N[C@@H](CC(C)C)C(=O)N[C@@H](CCCCN)C(=O)N[C@@H](CC(N)=O)C(=O)NCC(=O)NCC(=O)N1CCC[C@H]1C(=O)N[C@@H](CO)C(=O)N[C@@H](CO)C(=O)NCC(=O)N[C@@H](C)C(=O)N1CCC[C@H]1C(=O)N1CCC[C@H]1C(=O)N1CCC[C@H]1C(=O)N[C@@H](CO)C(N)=O)[C@@H](C)CC)C(C)C)C(=O)O [SEQ ID NO: 8, Y-Aib-E-G-T-F-T-S-D-L-S-I-Q-K(γE-x53)-EKEAVRLFIEWLKNGGPSSGAPPPS-NH2] |  |  |  | EC50 ([1]; Table 7, cAMP formation, read-out: EC50 hGIP R): 16.7 pM; EC50 ([2]; Table 7, read-out: EC50 hGLP-1 R): 20.1 pM |
| CCCCCCCCCCCCCCCC(=O)N[C@@H](CCC(=O)NCCCC[C@H](NC(=O)[C@H](CCC(N)=O)NC(=O)[C@@H](NC(=O)[C@H](CO)NC(=O)[C@H](CC(C)C)NC(=O)[C@H](CC(=O)O)NC(=O)[C@H](CO)NC(=O)[C@@H](NC(=O)[C@H](Cc1ccccc1)NC(=O)[C@@H](NC(=O)CNC(=O)[C@H](CCC(=O)O)NC(=O)C(C)(C)NC(=O)[C@@H](N)Cc1ccc(O)cc1)[C@@H](C)O)[C@@H](C)O)[C@@H](C)CC)C(=O)N[C@@H](CCC(=O)O)C(=O)N[C@@H](CCC(=O)O)C(=O)N[C@@H](CCC(=O)O)C(=O)N[C@@H](C)C(=O)N[C@H](C(=O)N[C@@H](CCCNC(=N)N)C(=O)N[C@@H](CC(C)C)C(=O)N[C@@H](Cc1ccccc1)C(=O)N[C@H](C(=O)N[C@@H](CCC(=O)O)C(=O)N[C@@H](Cc1c[nH]c2ccccc12)C(=O)N[C@@H](CC(C)C)C(=O)N[C@@H](CCCCN)C(=O)N[C@@H](C)C(=O)NCC(=O)NCC(=O)N1CCC[C@H]1C(=O)N[C@@H](CO)C(=O)N[C@@H](CO)C(=O)NCC(=O)N[C@@H](C)C(=O)N1CCC[C@H]1C(=O)N1CCC[C@H]1C(=O)N1CCC[C@H]1C(=O)N[C@@H](CO)C(N)=O)[C@@H](C)CC)C(C)C)C(=O)O [SEQ ID NO: 11, Y-Aib-E-G-T-F-T-S-D-L-S-I-Q-K(γE-x53)-EEEAVRLFIEWLKAGGPSSGAPPPS-NH2] |  |  |  | EC50 [1]: 5.7 pM |
| H-YAEGTFTSDVSIYLEGQAAKEFIAWLVKGR-NH2 [SEQ ID NO: 7, YAEGTFTSDVSIYLEGQAAKEFIAWLVKGR-NH2, reference compound] |  |  |  | EC50 ([1]; Table 2, cAMP formation, read-out: EC50 hGIP R): 3660 pM; EC50 ([2]; Table 2, read-out: EC50 hGLP-1 R): 5 pM |
| CCCCCCCCCCCCCCCCCC(=O)N[C@@H](CCC(=O)NCCCC[C@H](NC(=O)[C@H](CCC(N)=O)NC(=O)[C@@H](NC(=O)[C@H](CO)NC(=O)[C@H](CC(C)C)NC(=O)[C@H](CC(=O)O)NC(=O)[C@H](CO)NC(=O)[C@@H](NC(=O)[C@H](Cc1ccccc1)NC(=O)[C@@H](NC(=O)CNC(=O)[C@H](CCC(=O)O)NC(=O)C(C)(C)NC(=O)[C@@H](N)Cc1ccc(O)cc1)[C@@H](C)O)[C@@H](C)O)[C@@H](C)CC)C(=O)N[C@@H](CCC(=O)O)C(=O)N[C@@H](CCC(=O)O)C(=O)N[C@@H](CCC(=O)O)C(=O)N[C@@H](C)C(=O)N[C@H](C(=O)N[C@@H](CCCNC(=N)N)C(=O)N[C@@H](CC(C)C)C(=O)N[C@@H](Cc1ccccc1)C(=O)N[C@H](C(=O)N[C@@H](CCC(=O)O)C(=O)N[C@@H](Cc1c[nH]c2ccccc12)C(=O)N[C@@H](CC(C)C)C(=O)N[C@@H](CCCCN)C(=O)NC(C)(C)C(=O)NCC(=O)NCC(=O)N1CCC[C@H]1C(=O)N[C@@H](CO)C(=O)N[C@@H](CO)C(=O)NCC(=O)N[C@@H](C)C(=O)N1CCC[C@H]1C(=O)N1CCC[C@H]1C(=O)N1CCC[C@H]1C(=O)N[C@@H](CO)C(N)=O)[C@@H](C)CC)C(C)C)C(=O)O [SEQ ID NO: 12, Y-Aib-E-G-T-F-T-S-D-L-S-I-Q-K(γE-x70)-E-E-E-A-V-R-L-F-I-E-W-L-K-Aib-G-G-P-S-S-G-A-P-P-P-S-NH2] |  |  |  | EC50 ([2]; EC50 hGLP-1 R, Table 7): 11.9 pM; EC50 [3]: 95900 pM |
| Tyr(1)Ile(12)-GLP1 (peptide) | 3660 | 5 |  |  |
| Y[Aib]EGTFTSDLSIQK([γGlu-x70])EEEAVRLFIEWLKAGGPSSGAPPPS-NH2 (reading uncertain) [SEQ ID NO: 10] | 6.7 | 12.5 | > 1e+06 |  |
| Y[Aib]EGTFTSDLSIQK([γGlu-Palmitoyl])EEEAVRLFIEWLKAGGPSSGAPPPS-NH2 (N-terminus assumed; SMILES CCCCCCCCCCCCCCCC(=O)N[C@@H](CCC(=O)NCCCC[C@H](NC(=O)[C@H](CCC(N)=O)NC(=O)[C@@H](NC(=O)[C@H](CO)NC(=O)[C@H](CC(C)C)NC(=O)[C@H](CC(=O)O)NC(=O)[C@H](CO)NC(=O)[C@@H](NC(=O)[C@H](Cc1ccccc1)NC(=O)[C@@H](NC(=O)CNC(=O)[C@H](CCC(=O)O)NC(=O)C(C)(C)NC(=O)[C@@H](N)Cc1ccc(O)cc1)[C@@H](C)O)[C@@H](C)O)[C@@H](C)CC)C(=O)N[C@@H](CCC(=O)O)C(=O)N[C@@H](CCC(=O)O)C(=O)N[C@@H](CCC(=O)O)C(=O)N[C@@H](C)C(=O)N[C@H](C(=O)N[C@@H](CCCNC(=N)N)C(=O)N[C@@H](CC(C)C)C(=O)N[C@@H](Cc1ccccc1)C(=O)N[C@H](C(=O)N[C@@H](CCC(=O)O)C(=O)N[C@@H](Cc1c[nH]c2ccccc12)C(=O)N[C@@H](CC(C)C)C(=O)N[C@@H](CCCCN)C(=O)N[C@@H](C)C(=O)NCC(=O)NCC(=O)N1CCC[C@H]1C(=O)N[C@@H](CO)C(=O)N[C@@H](CO)C(=O)NCC(=O)N[C@@H](C)C(=O)N1CCC[C@H]1C(=O)N1CCC[C@H]1C(=O)N1CCC[C@H]1C(=O)N[C@@H](CO)C(N)=O)[C@@H](C)CC)C(C)C)C(=O)O) [SEQ ID NO: 11] | 5.7 | 9.3 | 429000 |  |
| Y[Aib]EGTFTSDLSIQK([γGlu-x70])EEEAVRLFIEWLK[Aib]GGPSSGAPPPS-NH2 (reading uncertain) [SEQ ID NO: 12] | 14.6 | 11.9 | 95900 |  |
| Y[Aib]EGTFTSDLSIQK([γGlu-x70])EEEAVRLFIEWLK[Aib]GGPSSGAPPPS-NH2 (reading uncertain) [SEQ ID NO: 9] | 14.6 | 26.7 | 164000 |  |
| Y[Aib]EGTFTSDLSIQK([γGlu-x70])EKEAVRLFIEWLKAGGPSSGAPPPS-NH2 (reading uncertain) [SEQ ID NO: 13] | 16.8 | 21.2 | 200000 |  |

Reference: US20140206608A1 (priority 2012, published 2014)
